Experimental data published in patent US20190247519.

Assays:
Assay in all cases: cell_activity
[1] = system: ZF6xHunt-Kox-1 (artificial (human Zif268 scaffold)); conditions: mRNA repression up to 2.5-fold (60%); protein 2-fold; STHdh cells 20 days
[2] = system: ZF11xHunt-Kox-1 (ZF-Kox-1) (artificial (human Zif268 scaffold))
[3] = system: mZF11-ZF87 (mZF-ZF87, mZF-KRAB) (artificial (mouse Zif268 scaffold)); conditions: R6/1 mice, 2 weeks after AAV injection; mZF-ZF87 design given as SEQ 50 (p342), legend of FIG. 13 cites SEQ 49
Sequence of mZF11-ZF87 (mZF-ZF87, mZF-KRAB) (artificial (mouse Zif268 scaffold)) (chain, as listed by the source): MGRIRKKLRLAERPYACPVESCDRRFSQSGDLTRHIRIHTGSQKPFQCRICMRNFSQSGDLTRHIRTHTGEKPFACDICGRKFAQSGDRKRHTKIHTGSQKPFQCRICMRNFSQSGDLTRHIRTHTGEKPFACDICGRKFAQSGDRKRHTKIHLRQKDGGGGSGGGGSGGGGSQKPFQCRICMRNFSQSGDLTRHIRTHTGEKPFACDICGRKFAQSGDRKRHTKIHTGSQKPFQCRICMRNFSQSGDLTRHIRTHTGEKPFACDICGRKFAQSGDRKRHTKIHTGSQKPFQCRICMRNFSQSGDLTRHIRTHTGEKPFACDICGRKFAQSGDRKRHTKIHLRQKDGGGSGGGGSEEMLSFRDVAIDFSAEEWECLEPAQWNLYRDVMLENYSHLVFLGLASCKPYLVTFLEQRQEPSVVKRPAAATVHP

Sequence of ZF11xHunt-Kox-1 (ZF-Kox-1) (artificial (human Zif268 scaffold)) (chain, as listed by the source): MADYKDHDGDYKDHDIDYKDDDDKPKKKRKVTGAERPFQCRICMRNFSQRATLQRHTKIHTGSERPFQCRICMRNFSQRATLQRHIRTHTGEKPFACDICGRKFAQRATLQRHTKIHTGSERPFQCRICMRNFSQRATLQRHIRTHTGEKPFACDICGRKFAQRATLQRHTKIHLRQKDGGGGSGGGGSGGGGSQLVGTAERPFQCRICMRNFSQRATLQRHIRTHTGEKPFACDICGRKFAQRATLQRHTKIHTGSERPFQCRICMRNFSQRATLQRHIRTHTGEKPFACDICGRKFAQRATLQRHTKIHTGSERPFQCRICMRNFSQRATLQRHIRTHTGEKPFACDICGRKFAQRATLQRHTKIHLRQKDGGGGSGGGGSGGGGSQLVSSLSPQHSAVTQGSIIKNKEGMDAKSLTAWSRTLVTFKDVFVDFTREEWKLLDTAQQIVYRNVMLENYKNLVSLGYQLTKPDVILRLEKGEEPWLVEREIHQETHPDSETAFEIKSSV
Sequence of ZF6xHunt-Kox-1 (artificial (human Zif268 scaffold)) (chain, as listed by the source): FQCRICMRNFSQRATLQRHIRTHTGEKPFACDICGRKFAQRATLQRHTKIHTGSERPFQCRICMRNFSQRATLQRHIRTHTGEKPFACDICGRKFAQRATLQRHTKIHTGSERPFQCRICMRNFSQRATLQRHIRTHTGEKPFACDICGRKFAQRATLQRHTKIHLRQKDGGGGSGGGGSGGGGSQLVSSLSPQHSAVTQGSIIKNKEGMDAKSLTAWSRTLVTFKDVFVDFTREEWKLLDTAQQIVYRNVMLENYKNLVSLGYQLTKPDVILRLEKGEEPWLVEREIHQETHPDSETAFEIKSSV

Substance	activity [1]	activity ([2]; almost 80% mRNA reduction, 95% protein reduction, STHdh cells 20 days)	activity [3]	activity ([2]; R6/2 mice, 2 weeks after AAV injection, mRNA)
chromosomal mutant Htt Q111 (STHdhQ111)	2.5 fold	80 % reduction	–	–
mutant HTT transgene in R6/2 or R6/1 mice	–	–	30 % reduction	35 % reduction
